Test results: PMC8614738 (2021)

Target: oligomeric EF-Tu (^OligoEF-Tu), unfolded (UniProt P0CE47 1-394)
Assay: ITC; 20 °C

Sequence of oligomeric EF-Tu (^OligoEF-Tu), unfolded (P0CE47 whole entry): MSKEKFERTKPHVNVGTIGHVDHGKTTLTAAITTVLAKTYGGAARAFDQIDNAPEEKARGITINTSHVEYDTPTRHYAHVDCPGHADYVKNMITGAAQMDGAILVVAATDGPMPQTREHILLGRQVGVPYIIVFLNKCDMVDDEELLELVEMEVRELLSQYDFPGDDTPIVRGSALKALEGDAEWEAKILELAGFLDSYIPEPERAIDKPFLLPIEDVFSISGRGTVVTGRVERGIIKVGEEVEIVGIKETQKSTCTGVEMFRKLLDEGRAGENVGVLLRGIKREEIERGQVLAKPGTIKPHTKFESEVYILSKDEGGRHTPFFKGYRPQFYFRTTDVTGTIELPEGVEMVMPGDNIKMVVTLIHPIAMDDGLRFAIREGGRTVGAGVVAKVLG

Kd: 1860 nM
B1: trigger factor (TF) (natural protein)
chain: MQVSVETTQGLGRRVTITIAADSIETAVKSELVNVAKKVRIDGFRKGKVPMNIVAQRYGASVRQDVLGDLMSRNFIDAIIKEKINPAGAPTYVPGEYKLGEDFTYSVEFEVYPEVELQGLEAIEVEKPIVEVTDADVDGMLDTLRKQQATWKEKDGAVEAEDRVTIDFTGSVDGEEFEGGKASDFVLAMGQGRMIPGFEDGIKGHKAGEEFTIDVTFPEEYHAENLKGKAAKFAINLKKVEERELPELTAEFIKRFGVEDGSVEGLRAEVRKNMERELKSAIRNRVKSQAIEGLVKANDIDVPAALIDSEIDVLRRQAAQRFGGNEKQALELPRELFEEQAKRRVVVGLLLGEVIRTNELKADEERVKGLIEEMASAYEDPKEVIEFYSKNKELMDNMRNVALEEQAVEAVLAKAKVTEKETTFNELMNQQA
